B1: DNA topoisomerase 3-beta-1 (Homo sapiens), O95985 (parent)
chain: MKTVLMVAEKPSLAQSIAKILSRGSLSSHKGLNGACSVHEYTGTFAGQPVRFKMTSVCGHVMTLDFLGKYNKWDKVDPAELFSQAPTEKKEANPKLNMVKFLQVEGRGCDYIVLWLDCDKEGENICFEVLDAVLPVMNKAHGGEKTVFRARFSSITDTDICNAMACLGEPDHNEALSVDARQELDLRIGCAFTRFQTKYFQGKYGDLDSSLISFGPCQTPTLGFCVERHDKIQSFKPETYWVLQAKVNTDKDRSLLLDWDRVRVFDREIAQMFLNMTKLEKEAQVEATSRKEKAKQRPLALNTVEMLRVASSSLGMGPQHAMQTAERLYTQGYISYPRTETTHYPENFDLKGSLRQQANHPYWADTVKRLLAEGINRPRKGHDAGDHPPITPMKSATEAELGGDAWRLYEYITRHFIATVSHDCKYLQSTISFRIGPELFTCSGKTVLSPGFTEVMPWQSVPLEESLPTCQRGDAFPVGEVKMLEKQTNPPDYLTEAELITLMEKHGIGTDASIPVHINNICQRNYVTVESGRRLKPTNLGIVLVHGYYKIDAELVLPTIRSAVEKQLNLIAQGKADYRQVLGHTLDVFKRKFHYFVDSIAGMDELMEVSFSPLAATGKPLSRCGKCHRFMKYIQAKPSRLHCSHCDETYTLPQNGTIKLYKELRCPLDDFELVLWSSGSRGKSYPLCPYCYNHPPFRDMKKGMGCNECTHPSCQHSLSMLGIGQCVECESGVLVLDPTSGPKWKVACNKCNVVAHCFENAHRVRVSADTCSVCEAALLDVDFNKAKSPLPGDETQHMGCVFCDPVFQELVELKHAASCHPMHRGGPGRRQGRGRGRARRPPGKPNPRRPKDKMSALAAYFV
B2: Tudor domain-containing protein 3 (Homo sapiens), Q9H7E2-3 (parent)
chain: MAQVAGAALSQAGWYLSDEGIEACTSSPDKVNVNDIILIALNTDLRTIGKKFLPSDINSGKVEKLEGPCVLQIQKIRNVAAPKDNEESQAAPRMLRLQMTDGHISCTAVEFSYMSKISLNTPPGTKVKLSGIVDIKNGFLLLNDSNTTVLGGEVEHLIEKWELQRSLSKHNRSNIGTEGGPPPFVPFGQKCVSHVQVDSRELDRRKTLQVTMPVKPTNDNDEFEKQRTAAIAEVAKSKETKTFGGGGGGARSNLNMNAAGNRNREVLQKEKSTKSEGKHEGVYRELVDEKALKHITEMGFSKEASRQALMDNGNNLEAALNVLLTSNKQKPVMGPPLRGRGKGRGRIRSEDEEDLGNARPSAPSTLFDFLESKMGTLNVEEPKSQPQQLHQGQYRSSNTEQNGVKDNNHLRHPPRNDTRQPRNEKPPRFQRDSQNSKSVLEGSGLPRNRGSERPSTSSVSEVWAEDRIKCDRPYSRYDRTKDTSYPLGSQHSDGAFKKRDNSMQSRSGKGPSFAEAKENPLPQGSVDYNNQKRGKRESQTSIPDYFYDRKSQTINNEAFSGIKIEKHFNVNTDYQNPVRSNSFIGVPNGEVEMPLKGRRIGPIKPAGPVTAVPCDDKIFYNSGPKRRSGPIKPEKILESSIPMEYAKMWKPGDECFALYWEDNKFYRAEVEALHSSGMTAVVKFIDYGNYEEVLLSNIKPIQTEAWEEEGTYDQTLEFRRGGDGQPRRSTRPTQQFYQPPRARN
partner: B1 chain

Variants of: B1
Details: with TDRD3, Q9H7E2-3

Variant	effect of a mutation on the interaction
D266A	with no effect

Variants of: B2
Details: with top3b_human TOP3B, O95985

Variant	effect of a mutation on the interaction
V79S	with no effect
V79S;A80S;A81S;P82S	decreasing interaction strength
V79S;P82S	decreasing interaction strength
A80S;A81Q;A90K;A91P;P92S	with no effect
A80S;A81S	with no effect
P82S	with no effect
P92S	decreasing interaction strength
P92S;M94S	disrupting interaction strength
M94S	disrupting interaction strength
R96A	with no effect
R96M	with no effect
R96M;F111Y	with no effect
R96M;F111Y;F139V	with no effect
R96M;F139V	with no effect
R96M;V109M	with no effect
R96M;V109M;F111Y	with no effect
R96M;V109M;F111Y;F139V	decreasing interaction strength
R96M;V109M;F139V	with no effect
V109M	with no effect
V109M;F111Y;F139V	with no effect
V109S	disrupting interaction strength
V109S;F111S	disrupting interaction strength
F111S	with no effect
F111Y	with no effect
F139S	decreasing interaction strength
F139S;L141S	disrupting interaction strength
F139V	with no effect
L141S	with no effect
